Assays:
[1] = tested on: DYT-TOR1A MEF EVs; test: Quantitative LC-MS/MS proteomics of EVs from drug-treated DYT-TOR1A MEF cultures (ritonavir, salubrinal); format: cell-based, mouse; set-up: key to RTV Corrective Direction / RTV Corrective Direction, Grwd1 / RTV Corrective Direction, Srrm2 / RTV Corrective Direction, Rbm17 / RTV Corrective Direction, Dcaf8 / RTV Corrective Direction, Edil3 / RTV Corrective Direction, Timp3 / RTV Corrective Direction, Heatr3 / RTV Corrective Direction, Brd4 / RTV Corrective Direction, P3h4 / RTV Corrective Direction, Pacsin3 / RTV Corrective Direction, Naa50 / RTV Corrective Direction, Lpar6 / RTV Corrective Direction, Ndrg1 / RTV Corrective Direction, Kntc1 / RTV Corrective Direction, Cdk11b / RTV Corrective Direction, Sumo1 / RTV Corrective Direction, Lsm4 / RTV Corrective Direction, Hmga2 / RTV Corrective Direction, Cstf1 / RTV Corrective Direction, Tes / RTV Corrective Direction, Sbno1 / RTV Corrective Direction, Unc119b / RTV Corrective Direction, Cfdp1 / RTV Corrective Direction, Sec61b: YES = protein abundance effect opposite to DYT/WT; conditions: EV protein abundance; for DYT + RTV/DYT Cohen's d: ritonavir (RTV)-treated DYT vs DYT; for RTV Corrective Direction: DYT + RTV (ritonavir) vs DYT, direction compared with DYT/WT
[2] = tested on: WT MEF EVs; test: Quantitative LC-MS/MS proteomics of EVs from ISRIB-treated WT MEF cultures; format: cell-based, mouse; set-up: key to ISRIB and DYT Parallel Direction / ISRIB and DYT Parallel Direction, Ctdsp1 / ISRIB and DYT Parallel Direction, Pcdh19 / ISRIB and DYT Parallel Direction, Tspan7 / ISRIB and DYT Parallel Direction, Myo1e / ISRIB and DYT Parallel Direction, Plpp3 / ISRIB and DYT Parallel Direction, Sh3bp4 / ISRIB and DYT Parallel Direction, Dnajc7 / ISRIB and DYT Parallel Direction, Drg1 / ISRIB and DYT Parallel Direction, Maea: YES = protein abundance effect similar to DYT/WT; conditions: EV protein abundance; for WT + ISRIB/WT Cohen's d: ISRIB-treated WT vs WT; for ISRIB and DYT Parallel Direction: WT + ISRIB vs WT, direction compared with DYT/WT

B1: Apom (protein, UniProt Q9Z1R3 1-190, looked up)
Apolipoprotein M: MFHQVWAALLSLYGLLFNSMNQCPEHSQLTALGMDDTETPEPHLGLWYFIAGAASTTEELATFDPVDNIVFNMAAGSAPRQLQLRATIRTKSGVCVPRKWTYRLTEGKGNMELRTEGRPDMKTDLFSSSCPGGIMLKETGQGYQRFLLYNRSPHPPEKCVEEFQSLTSCLDFKAFLVTPRNQEACPLSSK
DYT + RTV/DYT Cohen's d [1]: 0.40 | WT + ISRIB/WT Cohen's d [2]: 2.53 | ISRIB and DYT Parallel Direction [2]: YES

B2: Ilf3 (protein, UniProt Q9Z1X4 1-898, looked up)
Interleukin enhancer-binding …: MRPMRIFVNDDRHVMAKHSSVYPTQEELEAVQNMVSHTERALKAVSDWIDEQEKGNSELSEAENMDTPPDDESKEGAGEQKAEHMTRTLRGVMRVGLVAKGLLLKGDLDLELVLLCKEKPTTALLDKVADNLAIQLTTVTEDKYEILQSVDDAAIVIKNTKEPPLSLTIHLTSPVVREEMEKVLAGETLSVNDPPDVLDRQKCLAALASLRHAKWFQARANGLKSCVIVIRVLRDLCTRVPTWGPLRGWPLELLCEKSIGTANRPMGAGEALRRVLECLASGIVMPDGSGIYDPCEKEATDAIGHLDRQQREDITQSAQHALRLAAFGQLHKVLGMDPLPSKMPKKPKNENPVDYTVQIPPSTTYAITPMKRPMEEDGEEKSPSKKKKKIQKKEEKADPPQAMNALMRLNQLKPGLQYKLISQTGPVHAPIFTMSVEVDGSNFEASGPSKKTAKLHVAVKVLQDMGLPTGAEGRDSSKGEDSAEESDGKPAIVAPPPVVEAVSNPSSVFPSDATTEQGPILTKHGKNPVMELNEKRRGLKYELISETGGSHDKRFVMEVEVDGQKFQGAGSNKKVAKAYAALAALEKLFPDTPLALEANKKKRTPVPVRGGPKFAAKPHNPGFGMGGPMHNEVPPPPNIRGRGRGGNIRGRGRGRGFGGANHGGGYMNAGAGYGSYGYSSNSATAGYSQFYSNGGHSGNAGGGGSGGGGGSSSYSSYYQGDSYNSPVPPKHAGKKPLHGGQQKASYSSGYQSHQGQQQPYNQSQYSSYGTPQGKQKGYGHGQGSYSSYSNSYNSPGGGGGSDYSYDSKFNYSGSGGRSGGNSYGSSGSSSYNTGSHGGYGTGSGGSSSYQGKQGGYSSQSNYSSPGSSQSYSGPASSYQSSQGGYSRNTEHSMNYQYR
DYT + RTV/DYT Cohen's d [1]: −1.23 | WT + ISRIB/WT Cohen's d [2]: −4.89 | ISRIB and DYT Parallel Direction [2]: YES

B3: Exoc4 (protein, UniProt O35382 2-975, looked up)
Exocyst complex component 4: AAEAAGGKYRSTVSKSKDPSGLLISVIRTLSTSDDVEDRENEKGRLEEAYEKCDRDLDELIVQHYTELTTAIRTYQSITERITNSRNKIKQVKENLLSCKMLLHCKRDELRKLWIEGIEHKHVLNLLDEIENIKQVPQKLEQCMASKHYLSATDMLVSAVESLEGPLLQVEGLSDLRLELHSKKMNLHLVLIEELHRHLYIKSTSRVVQRNKEKGKMSSHGKDPSPGPLIDVSNIPTPRKFLDASQYSAAGGSSVREMNLQDVKEDLECDPEENSTLFMGILIQGLARLKKIPETVKAIKERLEQELKQIVKRSTTQVADSAYQRGESLTVDNQPRLLLELLELLFDKFNAVATAHSVVLGYLQDSVGTQLTQQEEIKLYDMADVWVKIQDVLQMLLTEYLDMKNTRTASEPSAQLSYASTGREFAAFFAKKKPQRPKNSLFKFESSSHAISMSAYLREQRRELYSRSGELQGGPDDNLIEGGGTKFVCKPGARNITVIFHPLLRFIQEIEHALGLGPAKQCPLREFLTVYIKSIFLNQVLAEINKEIEGVTKTSDPLKILANADTMKVLGVQRPLLQSTIIVEKTVQDLMNLMHDLSAYSDQFLNMVCVKLQEYKDTCSTAYRGIVQSEEKLVISASWAKDDDISRLLKSLPNWTNMAQPKQLRPKREEEEDFIRAAFGKESEVLIGNLGDKLIPPQDILRDVSDLKALANMHESLEWLAGRTKSAFSNLSTSQMLSPAQESHVNMDLPPVSEQIMQTLSELAKTFQDMADRCLLVLHLEVRVHCFHYLIPLAKEGNYAIVANVESMDYDPLVVKLNKDISAMEEAMSASLQQHKFQYIFEGLGHLISCILINGAQYFRRISESGIKKMCRNIFVLQQNLTNITMSREADLDFARQYYEMLYNTADELLNLVVDQGVKYTELEYIHALTLLHRSQTGVGDQTTQNTRLQRLKEIICEQAAIKQATKDKKITTV
RTV Corrective Direction [1]: YES | DYT + RTV/DYT Cohen's d [1]: 7.70 | WT + ISRIB/WT Cohen's d [2]: −1.51 | ISRIB and DYT Parallel Direction [2]: YES

B4: Slc44a1 (protein, UniProt Q6X893 2-653, looked up)
Choline transporter-like …: GCCSSASAAQSSKREWKPLEDRSCTDIPWLLLFVLFCIGMGFICGFSVATGAAARLVSGYDSYGNICGQRNAKLEAIPNSGLDHTHRKYVFFLDPCNLDLINRKIKSIALCVAACPRQELKTLSDVQKFAEINGSALCSYNIKPSEYTLTSKSSGFCPKLPVPASAPIPFFHRCAPVNISCYAKFAEALITFVSDNSVLHRLISGVMTSKEIILGLCLLSLVLSMILMVIIRYISRVLVWILTVLVILGSLGGTGVLWWLYAKQRRSPKEAVIPEQLQIAEDNLRALLIYAISATVFTVILFLIMLVMRKRVALTIALFHVAGKVFIHLPLLVFQPFWTFFALVLFWAYWIMTLLFLGTTGSAVQNEQGFVEYKISGPLQYMWWYHVVGLIWISEFILACQQMTVAGAVVTYYFTRDKRNLPFTPILASVNRLIRYHLGTVAKGSFIITLVKIPRMVLMYIHSQLKGKENACARCMLKSCICCLWCLEKCLSYLNQNAYTATAINSTNFCTSAKDAFVILVENALRVAAINTVGDFMLFLGKVLIVCSTGLAGIMLLNYQQDYTVWVLPLIIVCLFAFLVAHCFLSIYEMVVDVLFLCFAIDTKYNDGSPGREFYMDKVLMEFVENSRKAMKEAGKGGAADARELKPMLRKR
RTV Corrective Direction [1]: YES | DYT + RTV/DYT Cohen's d [1]: 0.84 | WT + ISRIB/WT Cohen's d [2]: 0.80

B5: Wbp2 (protein, UniProt P97765 1-261, looked up)
WW domain-binding protein 2: MALNKNHSEGGGVIVNNTESILMSYDHVELTFNDMKNVPEAFKGTKKGTVYLTPYRVIFLSKGKDAMQSFMMPFYLMKDCEIKQPVFGANFIKGIVKAEAGGGWEGSASYKLTFTAGGAIEFGQRMLQVASQASRGEVPNGAYGYPYMPSGAYVFPPPVANGMYPCPPGYPYPPPPPEFYPGPPMMDGAMGYVQPPPPPYPGPMEPPVSGPSAPATPAAEAKAAEAAASAYYNPGNPHNVYMPTSQPPPPPYYPPEDKKTQ
DYT + RTV/DYT Cohen's d [1]: −0.89 | WT + ISRIB/WT Cohen's d [2]: −1.50 | ISRIB and DYT Parallel Direction [2]: YES

B6: Slc25a5 (protein, UniProt P51881 1-298, looked up)
ADP/ATP translocase 2: MTDAAVSFAKDFLAGGVAAAISKTAVAPIERVKLLLQVQHASKQITADKQYKGIIDCVVRIPKEQGVLSFWRGNLANVIRYFPTQALNFAFKDKYKQIFLGGVDKRTQFWRYFAGNLASGGAAGATSLCFVYPLDFARTRLAADVGKAGAEREFKGLGDCLVKIYKSDGIKGLYQGFNVSVQGIIIYRAAYFGIYDTAKGMLPDPKNTHIFISWMIAQSVTAVAGLTSYPFDTVRRRMMMQSGRKGTDIMYTGTLDCWRKIARDEGSKAFFKGAWSNVLRGMGGAFVLVLYDEIKKYT
DYT + RTV/DYT Cohen's d [1]: −0.78 | WT + ISRIB/WT Cohen's d [2]: −0.54 | ISRIB and DYT Parallel Direction [2]: YES

Reference: patent US20260266848A1, “COMPOSITIONS AND METHODS FOR DIAGNOSING AND TREATING DYSTONIA” (Duke University, priority 2023, published 2026)
